{
  "source": "patent US20220144934A1",
  "about": "(Janssen / Centocor, published 2022)",
  "binders": {"B1": {"name": "GenTNV148.26.12 (antibody, human IgG1, kappa, V domains shown)", "VH": "QVQLVESGGGVVQPGRSLRLSCAASGFIFSSYAMHWVRQAPGNGLEWVAFMSYDGSNKKYADSVKGRFTISRDNPKNTLYLQMNSLRAEDTAVYYCARDRGIAAGGNYYYYGMDVWGQGTTVTVSS", "VL": "EIVLTQSPATLSLSPGERATLSCRASQSVYSYLAWYQQKPGQAPRLLIYDASNRATGIPARFSGSGSGTDFTLTISSLEPEDFAVYYCQQRSNWPPFTFGPGTKVDIKR", "notes": "also called C420A"}, "B2": {"name": "GenTNV86.14.34 (antibody, human IgG1, kappa, V domains shown)", "VH": "B1 VH", "VL": "B1 VL", "notes": "also called C417A"}, "B3": {"name": "golimumab (antibody, human IgG1, kappa, V domains shown)", "VH": "B1 VH with P75S", "VL": "B1 VL", "modifications": "partial cyclic succinimide at LC Asn93 (LC cycAsn93); N-glycosylated on asparagine 306; partial deamidation of HC Asn43", "notes": "Fully human IgG1 kappa, produced in Sp2/0 cells; also called SIMPONI"}},
  "key": {"recombinant human TNFα [1]": {"biological_target": "T1, recombinant human TNFα (human, UniProt P01375 77-233, 125I-labeled in the receptor-blocking assay ; 125I-labelled (positions not stated) only in the receptor-blocking assay; soluble homotrimer of this 17 kD subunit)", "T1 construct": "also called huTNFα; soluble human tumor necrosis factor alpha", "experiment": "inhibition of 125I-TNFα binding to plate-coated p55-sf2 by hybridoma supernatant", "protocol": "(§1) Although eight TNV mAb samples were tested in these experiments, for simplicity three of the mAbs that were shown by DNA sequence analyses to be identical to one of the other TNV mAbs (see Section 5.2.2) are not shown here. Each sample was tested in duplicate. The results shown are representative of two independent experiments.\n(§2) 50:1 of p55-sf2 at 0.5 :g/ml in PBS was added to Optiplates to coat the wells during a one-hour incubation at 37° C. Serial dilutions of the eight TNV cell supernatants were prepared in 96-well round-bottom plates using PBS/0.1% BSA as diluent. […] The mixture was preincubated for one hour at RT. […] After 2 hrs at RT, Optiplates were washed three times with PBS-Tween. […] of Microscint-20 was added and the cpm bound determined using the TopCount gamma counter."}, "recombinant human TNFα [2]": {"biological_target": "T1, recombinant human TNFα", "experiment": "competition radioligand assay: mAb in hybridoma supernatant preincubated with 5 ng/ml 125I-TNFα, then 125I-TNFα bound to plate-coated p55-sf2 (TNF receptor/IgG fusion) counted as cpm", "protocol": "as §1, §2"}, "recombinant human TNFα [3]": {"biological_target": "T1, recombinant human TNFα", "experiment": "cell-based or functional assay"}, "human lymphotoxin": {"biological_target": "T2, human lymphotoxin (human, UniProt P01374 35-205, limits assumed)", "T2 sequence (looked up)": "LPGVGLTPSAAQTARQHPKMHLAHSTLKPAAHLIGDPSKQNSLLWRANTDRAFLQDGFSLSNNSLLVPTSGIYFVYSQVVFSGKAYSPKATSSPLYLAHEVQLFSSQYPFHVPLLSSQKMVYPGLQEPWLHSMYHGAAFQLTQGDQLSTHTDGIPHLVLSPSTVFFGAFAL", "experiment": "not described"}},
  "note": "Substitutions are numbered along the chain they refer to. Numbers in names are those of the source.",
  "data": [
    {"binder": "B1", "values": [
      {"measurement": "fold better at blocking TNF binding than TNV118 and TNV14", "setting": "recombinant human TNFα [1]", "value": "~4", "unit": "fold"},
      {"measurement": "IC50 (read off the curve)", "setting": "recombinant human TNFα [2]", "value": "~3", "unit": "ng/mL"},
      {"measurement": "neutralizing TNFα bioactivity (potency relative to TNV14)", "setting": "recombinant human TNFα [3]", "value": 4, "unit": "fold"}
    ]},
    {"binder": "B2", "values": [
      {"measurement": "fold better at blocking TNF binding than TNV118 and TNV14", "setting": "recombinant human TNFα [1]", "value": "~4", "unit": "fold"}
    ]},
    {"binder": "B3", "values": [
      {"measurement": "binding result", "setting": "human lymphotoxin", "value": "no binding"}
    ]}
  ]
}
